Here are results for seven sequences from the supplement of paper PMC11246515.

This data set can be described thus: total protein half-life in vivo (active degradation + dilution); higher = more stable protein.
Where [1] appears, read: E. coli NCM3722 delta-clpP delta-lon delta-hslV, growth: N-lim chemostat, doubling time 6 h.
Setting [2] is: E. coli NCM3722 delta-clpP, growth: N-lim chemostat, doubling time 6 h.
The mark [3] stands for this setting: E. coli NCM3722 delta-hslV, growth: N-lim chemostat, doubling time 6 h.
[4] abbreviates: E. coli NCM3722 delta-lon, growth: N-lim chemostat, doubling time 6 h.
[5] abbreviates: E. coli NCM3722 delta-smpB, growth: N-lim chemostat, doubling time 6 h.
Where [6] appears, read: wild type E. coli NCM3722, growth: C-lim chemostat, doubling time 3 h.
The mark [7] stands for this setting: wild type E. coli NCM3722, growth: C-lim chemostat, doubling time 6 h.
[8] abbreviates: wild type E. coli NCM3722, growth: C-lim chemostat, doubling time 12 h.
The mark [9] stands for this setting: wild type E. coli NCM3722, growth: N-lim chemostat, doubling time 6 h.
The mark [10] stands for this setting: wild type E. coli NCM3722, growth: N-lim chemostat, doubling time 12 h.
The mark [11] stands for this setting: wild type E. coli NCM3722, growth: P-lim chemostat, doubling time 6 h.
The mark [12] stands for this setting: wild type E. coli NCM3722, growth: P-lim chemostat, doubling time 12 h.

± gives the standard deviation of the averaged measurements.

Turning to “MLSFLWDLASFIVALGVLITVHEFGHFWVARRCGVRVERFSIGFGKALWRRTDKLGTEYVIALIPLGGYVKMLDERAEPVVPELRHHAFNNKSVGQRAAIIAAGPVANFIFAIFAYWLVFIIGVPGVRPVVGEIAANSIAAEAQIAPGTELKAVDGIETPDWDAVRLQLVDKIGDESTTITVAPFGSDQRRDVKLDLRHWAFEPDKEDPVSSLGIRPRGPQIEPVLENVQPNSAASKAGLQAGDRIVKVDGQPLTQWVTFVMLVRDNPGKSLALEIERQGSPLSLTLIPESKPGNGKAIGFVGIEPKVIPLPDEYKVVRQYGPFNAIVEATDKTWQLMKLTVSMLGKLITGDVKLNNLSGPISIAKGAGMTAELGVVYYLPFLALISVNLGIINLFPLPVLDGGHLLFLAIEKIKGGPVSERVQDFCYRIGSILLVLLMGLALFNDFSRL [P0AEH1]”, the “total protein half-life in vivo” value by setting is: under setting [1], 5.38 ± 0.54 h; under setting [2], 4.76 ± 0.25 h; under setting [3], 4.25 ± 0.049 h; under setting [4], 5.088 ± 0.044 h; under setting [5], 4.624 ± 0.034 h; under setting [6], 2.69 ± 0.22 h. Also, the “total protein half-life in vivo” value was found to be 4.23 ± 0.79 h under setting [7]; 7.59 ± 0.17 h under setting [8]; 4.2 ± 0.15 h under setting [9]; 7.28 ± 0.63 h under setting [10]; 4.17 ± 0.6 h under setting [11]; 6.21 ± 0.8 h under setting [12].
Take “MYQVVASDLDGTLLSPDHTLSPYAKETLKLLTARGINFVFATGRHHVDVGQIRDNLEIKSYMITSNGARVHDLDGNLIFAHNLDRDIASDLFGVVNDNPDIITNVYRDDEWFMNRHRPEEMRFFKEAVFQYALYEPGLLEPEGVSKVFFTCDSHEQLLPLEQAINARWGDRVNVSFSTLTCLEVMAGGVSKGHALEAVAKKLGYSLKDCIAFGDGMNDAEMLSMAGKGCIMGSAHQRLKDLHPELEVIGTNADDAVPHYLRKLYLS”: the “total protein half-life in vivo” value by setting is: under setting [1], 3.6 ± 0.88 h; under setting [2], 2.94 ± 0.046 h; under setting [3], 3.53 ± 0.15 h; under setting [4], 3.67 ± 0.27 h; under setting [5], 3.31 ± 0.055 h; under setting [7], 4.88 ± 0.24 h. The “total protein half-life in vivo” value by setting is: under setting [8], 8.98 ± 0.53 h; under setting [9], 3.39 ± 0.091 h; under setting [10], 5.36 ± 0.23 h; under setting [11], 4.82 ± 0.18 h; under setting [12], 10.2 ± 0.16 h.
As for “MSNAQEAVKTRHKETSLIFPVLALVVLFLWGSSQTLPVVIAINLLALIGILSSAFSVVRHADVLAHRLGEPYGSLILSLSVVILEVSLISALMATGDAAPTLMRDTLYSIIMIVTGGLVGFSLLLGGRKFATQYMNLFGIKQYLIALFPLAIIVLVFPMALPAANFSTGQALLVALISAAMYGVFLLIQTKTHQSLFVYEHEDDSDDDDPHHGKPSAHSSLWHAIWLIIHLIAVIAVTKMNASSLETLLDSMNAPVAFTGFLVALLILSPEGLGALKAVLNNQVQRAMNLFFGSVLATISLTVPVVTLIAFMTGNELQFALGAPEMVVMVASLVLCHISFSTGRTNVLNGAAHLALFAAYLMTIFA”, the “total protein half-life in vivo” value by setting is: under setting [2], greater than 8 h; under setting [5], 6.69 h; under setting [8], greater than 16 h; under setting [11], 6.87 h.
Take “MAEHLMSDVPFWQSKTLDEMSDAEWESLCDGCGQCCLHKLMDEDTDEIYFTNVACRQLNIKTCQCRNYERRFEFEPDCIKLTRENLPTFEWLPMTCAYRLLAEGKDLPAWHPLLTGSKAAMHGERISVRHIAVKESEVIDWQDHILNKPDWAQ [P0A8L5]”: the “total protein half-life in vivo” value under setting [1] was found to be 3.88 ± 0.37 h, the “total protein half-life in vivo” value under setting [7] was 1.17 h and the “total protein half-life in vivo” value under setting [12] was determined as 1.97 h.
Regarding “MDNDKIDQHSDEIEVESEEKERGKKIEIDEDRLPSRAMAIHEHIRQDGEKELERDAMALLWSAIAAGLSMGASLLAKGIFQVELEGVPGSFLLENLGYTFGFIIVIMARQQLFTENTVTAVLPVMQKPTMSNVGLLIRLWGVVLLGNILGTGIAAWAFEYMPIFNEETRDAFVKIGMDVMKNTPSEMFANAIISGWLIATMVWMFPAAGAAKIVVIILMTWLIALGDTTHIVVGSVEILYLVFNGTLHWSDFIWPFALPTLAGNICGGTFIFALMSHAQIRNDMSNKRKAEARQKAERAENIKKNYKNPA”, the “total protein half-life in vivo” value reads like this: under setting [1], 6.19 ± 0.79 h; under setting [2], 5.38 ± 0.26 h; under setting [3], 5.3 h; under setting [4], 5.46 h; under setting [5], 6.11 ± 1.4 h; under setting [6], 3.47 h. Moreover, the “total protein half-life in vivo” value was found to be 5.51 ± 0.23 h under setting [7]; 11.5 ± 1.9 h under setting [8]; 5.75 ± 1.1 h under setting [9]; 13.5 ± 1.3 h under setting [10]; 6.29 ± 0.45 h under setting [11]; 12.6 ± 0.066 h under setting [12].
Turning to “MTKIIAVTACPSGVAHTYMAAEALESAAKAKGWEVKVETQGSIGLENELTAEDVASADMVILTKDIGIKFEERFAGKTIVRVNISDAVKRADAIMSKIEAHLAQTA”, the “total protein half-life in vivo” value by setting is: under setting [1], 4.85 ± 0.3 h; under setting [2], 5.65 h; under setting [8], 8.01 ± 8.9 h.
As for “MSNWPYPRIVAHRGGGKLAPENTLASIDVGAKYGHKMIEFDAKLSKDGEIFLLHDDNLERTSNGWGVAGELNWQDLLRVDAGSWYSKMFKGEPLPLLSQVAERCREHGMMANIEIKPTTGTGPLTGKMVALAARELWAGMTPPLLSSFEIDALEAAQQAAPELPRGLLLDEWRDDWRELTARLGCVSIHLNHKLLNKARVMQLKDAGLRILVYTVNKPQRAAELLRWGVDCICTDAIDVIGPNFTAQ”, the “total protein half-life in vivo” value under setting [1] was 4.77 ± 0.94 h; the “total protein half-life in vivo” value under setting [2] is 3.75 ± 0.46 h; the “total protein half-life in vivo” value under setting [3] was 3.65 ± 0.043 h; the “total protein half-life in vivo” value under setting [4] was determined as 4.1 ± 0.021 h; the “total protein half-life in vivo” value under setting [5] came to 3.72 ± 0.12 h; the “total protein half-life in vivo” value under setting [6] is 3.33 ± 0.72 h. The “total protein half-life in vivo” value was determined as 5.491 ± 0.049 h under setting [7]; 9.38 ± 0.43 h under setting [8]; 3.87 ± 0.31 h under setting [9]; 6.08 ± 0.18 h under setting [10]; 5.07 ± 0.11 h under setting [11]; 9.88 ± 0.3 h under setting [12].
